Results on one molecule are retold here after patent publication US20140178390A1 (published 2014).

The experiment addresses Human CXCR7 (UniProt P25106 1-362). In words: FACS competition with biotinylated SDF-1.

Chain of Human CXCR7 (P25106 whole entry): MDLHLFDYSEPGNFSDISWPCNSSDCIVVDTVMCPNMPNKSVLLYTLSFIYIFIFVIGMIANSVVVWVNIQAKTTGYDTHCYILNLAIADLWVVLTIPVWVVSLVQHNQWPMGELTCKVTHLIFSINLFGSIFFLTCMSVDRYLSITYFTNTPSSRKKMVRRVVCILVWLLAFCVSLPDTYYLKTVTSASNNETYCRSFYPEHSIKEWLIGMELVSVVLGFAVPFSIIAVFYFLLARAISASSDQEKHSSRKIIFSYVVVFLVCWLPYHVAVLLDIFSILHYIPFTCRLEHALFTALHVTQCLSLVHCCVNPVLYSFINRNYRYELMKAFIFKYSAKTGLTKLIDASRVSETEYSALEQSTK

B1: Nanobody 07C03 with Tag-1 (VHH)
VHH: EVQLVESGGGLVQAGESLTLSCAASGRTLSAYIMGWFRQAPGKEREFVAGIWSGGYTHLADSAKGRFSISRDNAKNTVYLQMNGLKPEDTAVYYCAAGLRGRQYSNWGQGTQVTVSS
Usually IC50 stands for the concentration at which inhibition is half-maximal. On to B1, for which the IC50 was 7.77 nM.
